Measured values as given in the supplement of paper PMC10567573.
± gives the standard deviation.

Assay: protein stability index of a GFP-peptide fusion (GPS, HEK-293T) (PSI 1-6); higher = more stable
[1] = treatment: DMSO, c terminus: a fixed tail appended
[2] = treatment: MLN4924 1 uM, 8 h, c terminus: a fixed tail appended
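Further: 24-mer peptide tiles fused after GFP, lentivirally expressed, FACS-sorted into six equal bins by GFP/DsRed ratio, decoded by Illumina sequencing, PSI is the read-weighted mean bin number.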

| Sequence | protein stability index [1] | protein stability index [2] | protein stability index (treatment: DMSO, c terminus: native) | protein stability index (treatment: MLN4924 1 uM, 8 h, c terminus: native) |
| --- | --- | --- | --- | --- |
| GCVSRCWEVQVSPTCPVCKDRASP [TRIM35] | 4.04 ± 0.28 | 4.13 ± 0.44 |  |  |
| GDETAHRIDSQFLIGDTLLVAPVL [MYORG] | 2.94 ± 0.3 | 2.85 ± 0.34 |  |  |
| GDHRSPASAQKFSSRSTVPTPAKR [NET1] | 4.75 ± 0.38 | 5.05 ± 0.23 |  |  |
| GEKPFECNECGKAFRWGAHLVQHQ [ZNF232] | 2.58 ± 0.52 | 2.62 ± 0.82 |  |  |
| GEKSENNSSNSDIVHVEKEEVPEG [BCL2L13] | 5.8 ± 0.2 | 5.3 ± 0.76 |  |  |
| GFALNPDKKTCTKIDYCASSNHGC [MATN2] | 3.53 ± 0.31 | 3.57 ± 0.64 |  |  |
| GFEESEPLTGFLTTVPDGPTQLRA [TNXB] | 4.44 ± 0.41 | 4.52 ± 0.3 |  |  |
| GFQPPSPSLRPRPASSISLPIGHL [DMRTC1] | 3.43 ± 0.21 | 3.44 ± 0.19 |  |  |
| GFRESDSAKPASLRLLQHTPSARR [C6orf223] | 4.49 ± 0.38 | 4.67 ± 0.3 |  |  |
| GFRGSDDMELHRMSRMQSKEYPVV [TBX5] | 3.93 ± 0.31 | 3.98 ± 0.31 |  |  |
| GGLAESELRPRRGRCGPQAARAAG [POMT2] | 3.71 ± 0.17 | 3.75 ± 0.38 |  |  |
| GGLNRETNEKMLKAVFGKHGPISE [RBMY1A1] | 3.69 ± 0.28 | 3.81 ± 0.19 |  |  |
| GGRDFSAPLTISRVHAGSKAALAA [PDLIM4] | 3.59 ± 0.24 | 3.85 ± 0.27 |  |  |
| GGRGVSTCSTRFVSGGSAGGYGGG [KRT13] | 3.77 ± 0.41 | 3.97 ± 0.15 |  |  |
| GGVLIDRYGRRTAIILSSCLLGLG [SLC2A12] | 2.86 ± 1 | 2.74 ± 1.3 |  |  |
| GHEYAAKIINTKKLSARDHQKLER [CAMK2B] | 4.09 ± 0.24 | 4.32 ± 0.19 |  |  |
| GIDLAVYETLKNAWLQHYAVNSAD [SLC25A25] | 2.84 ± 0.44 | 2.4 ± 0.33 |  |  |
| GILHYAHGDSQQTHLLKQGRSSMG [CRY1] | 3.6 ± 0.23 | 3.52 ± 0.3 |  |  |
| GKDQGINIRQKVKELVEFAQDDDR [CLINT1] | 5.15 ± 0.42 | 4.91 ± 0.28 |  |  |
| GKIDFPRHLDFHVKDLIKKLLVVD [PRKX] | 2.44 ± 0.48 | 1.97 ± 0.078 |  |  |
| GKVLQNKQAEICQLEEKLEIANED [CCDC89] | 5.26 ± 0.37 | 5.44 ± 0.25 |  |  |
| GLAIHCMQVHKETIDAVPNAIPGR [ZNF207] | 2.94 ± 0.18 | 3.04 ± 0.16 |  |  |

| Sequence | protein stability index [1] | protein stability index [2] | protein stability index (treatment: DMSO, c terminus: native) | protein stability index (treatment: MLN4924 1 uM, 8 h, c terminus: native) |
| --- | --- | --- | --- | --- |
| GLHRRPGAGHCSASPGPAAPTARM | 3.76 ± 0.31 | 3.64 ± 0.31 |  |  |
| GLLWLLLGSAGAQYEKYSFRGFPP [P3H4] | 3.08 ± 0.098 | 3.71 ± 0.62 |  |  |
| GLNDALDNLRKVVPCYSKTQKLSK [NEUROD6] | 3.25 ± 0.15 | 3.42 ± 0.18 |  |  |
| GLNLGKKISVPRDVMLEELSLLTN [MYOZ1] | 2.72 ± 0.41 | 3.1 ± 0.29 |  |  |
| GLNSSWVELPMNSSNGNDNGNGKN [BNIP3L] | 5.11 ± 0.42 | 5.54 ± 0.2 |  |  |
| GNAHLGYSLVTHIPAGARDIQIVE [ADAMTSL2] | 3.03 ± 0.34 | 3.24 ± 0.13 |  |  |
| GNFDWEAIFDAGTLGGELGALEAL [FOXJ1] | 4.15 ± 0.26 | 4.17 ± 0.34 |  |  |
| GPGIPPLMPGMPPGMPPPVPRPGI [ZNF207] | 4.29 ± 0.23 | 4.35 ± 0.33 |  |  |
| GQSLLKDEALAIAALELLPRELFP [PRAME] | 2.75 ± 0.41 | 2.84 ± 0.36 |  |  |
| GQSVTAVGRIIAPLLSGVAQEVSP [MFSD9] | 3.39 ± 0.19 | 3.44 ± 0.19 |  |  |
| GREVELKPYIAAHFDVLPTEFTLG [PTPRD] | 3.01 ± 0.37 | 3 |  |  |
| GRGAQGENERVRGLETGDWGGAPK [ZSWIM9] | 5 ± 0.21 | 4.98 ± 0.24 |  |  |
| GRGAVVPGAGLRRPTYTPPSIMPQ [ZBTB22] | 3.51 ± 0.3 | 3.74 ± 0.063 |  |  |
| GSGADSEPARHIFSFSWLNSLNE [TRIM55] |  |  | 3.53 ± 0.41 | 3.53 ± 0.26 |
| GSIEYSCPASNECEITKRRRKACQ [ESRRA] | 4.88 ± 0.23 | 4.97 ± 0.25 |  |  |
| GSLRTLELGSESQGASESQAPGEE [HDAC6] | 5.52 ± 0.29 | 5.58 ± 0.22 |  |  |
| GSRTPGRSELVEGCGWRCPEHGDR [TRIM14] | 4.19 ± 0.3 | 4.48 ± 0.074 |  |  |
| GSSETNLLQHLLEACGRCEEVPEA [PYCR3] | 3.74 ± 0.19 | 4.19 ± 0.14 |  |  |
| GSSGASDQDTLAPLPHPGAAPWPM [DVL3] | 4.2 ± 0.15 | 4.3 ± 0.09 |  |  |
| GSSSDNRTYRYSNRYCGGPGPPIT [DYRK1B] | 2.57 ± 0.42 | 2.75 ± 0.19 |  |  |
| GSVGAAICGLQQDEEVSSLTCDAL [CCND2] | 4.54 ± 0.35 | 4.63 ± 0.25 |  |  |
| GTASSGSSRLPQPSGAGKTVVGVP [ZC2HC1A] | 4.74 ± 0.41 | 4.72 ± 0.12 |  |  |

| Sequence | protein stability index [1] | protein stability index [2] | protein stability index (treatment: DMSO, c terminus: native) | protein stability index (treatment: MLN4924 1 uM, 8 h, c terminus: native) |
| --- | --- | --- | --- | --- |
| GTATRQNNWPPLPSFCPVQPCFFQ [SCAMP3] | 2.42 ± 0.16 | 2.45 ± 0.19 |  |  |
| GTEEKKKLIRDFDEKQQEANETLA [VTI1B] | 5.57 ± 0.22 | 5.51 ± 0.15 |  |  |
| GTWDDAFATFCGGLAANGALQRLD [LRRC45] | 3.2 ± 0.052 | 3.12 ± 0.28 |  |  |
| GVDPQQKMELGIDLLAYGAKAELP [MYOZ1] | 3.95 ± 0.083 | 4.05 ± 0.16 |  |  |
| GVEIDEINVYGNTALHIACYNGQD [ANKRD44] | 3.58 ± 0.19 | 3.55 ± 0.33 |  |  |
| GVGFATRKVAGMAKPNMIISVNGD [FABP4] | 3.02 ± 0.28 | 3.04 ± 0.47 |  |  |
| GVNPDQVEKIRKLPNTLLRKDKDV [ANKRD40] | 4.63 ± 0.35 | 4.73 ± 0.26 |  |  |
| GVRCNTPAMGLQKKLRLNGGRNPY [LOXL2] | 2.75 ± 0.12 | 2.95 ± 0.34 |  |  |
| GVRIVSRGRTQLFSLNPRSGSLIT [PCDHGA10] | 2.08 ± 0.2 | 2.21 ± 0.25 |  |  |
| GVRVSVPCPSTTCCRACSVSFSTG [BET1L] | 2.49 ± 0.38 | 2.35 ± 0.31 |  |  |
| GVWAPPAPGFGEDVPNRLVDNIDM [BEX5] | 4.52 ± 0.57 | 4.25 ± 0.55 |  |  |
| GWGTVFSLESEEEEYPGITAEDSN [BCL2L13] | 5.05 ± 0.23 | 5.03 ± 0.38 |  |  |
| GYDDDNHDYIVRSGERWLERYEID [DYRK1B] | 4.11 ± 0.27 | 4.03 ± 0.22 |  |  |
| GYSGTSDRIRFTVNRRISIVGFGL [BTBD1] | 2.83 ± 0.27 | 2.87 ± 0.36 |  |  |
| HAEIIAWIRICRPGSIIGPQQHFL [CDC14A] | 3.91 ± 0.99 | 2.74 ± 1.6 |  |  |
| HAPGVPRILVGNRLHLAFKRQVPT [RAB40C] | 2.69 ± 0.17 | 2.72 ± 0.13 |  |  |
| HDYIVRSGERWLERYEIDSLIGKG [DYRK1B] | 2.95 ± 0.49 | 3.11 ± 0.38 |  |  |
| HEGKTDSERTDTAADGETTATEEL [EPB41L3] | 5.65 ± 0.34 | 5.51 ± 0.21 |  |  |
| HESEGGRTPLMKAARAGHVCTVQF [ANKRD17] | 2.71 ± 0.28 | 2.6 ± 0.33 |  |  |
| HETESTSDKETDIDDRYGDLDSRT [CDS1] | 5.42 ± 0.19 | 5.6 ± 0.22 |  |  |
| HFRHPKRSVSLSMRKSGAMKKGGI [BNIP3L] | 3.51 ± 0.36 | 3.32 ± 0.35 |  |  |
